{"source": "the DeepSol protein solubility set", "data": [{"test": "soluble on expression in E. coli; label from the status in PepcDB or PDB records", "values": [{"sequence": "MSLQVSLNPEWLARNNDEHKIRRNDHRSPFQRDRARILHSAAFRRLQAKTQVHGTSLNDFHRTRLTHSLEAAQIGTGIVAQIKLKQPEFRELLPSDSLIDSLCLAHDIGHPPYGHGGEIALNYMMRDHGGFEGNAQTFRIVTSLEPYTEHHGMNLSRRTLLGLLKYPALLSATRAAIPPPAVAHQRQLKAKDWSPAKGIYDCDLASLDWVLEPLCESDRELLGQMRAEPSSPKEHRKTRFKSLDCSIMELADDIAYGVHDLEDAIVLGMVTRAQWQEAAAAQLAECGDPWFEEHIAELSEMLFSGKHYVRKDAIGGIVNALLTSISVKPVEAPFHNELLAFNAYIEPHMGNALEVLKHFVSQYVIQIPQVQRFEYKGQQLIMDLFEALSADPERLLPQATGEKWRKAQEQDEGMRVICDYIAAMTDAYAQRLHQQLFSAQSHYEGGSHHHHHH", "soluble on expression in E. coli": "soluble"}, {"sequence": "MSVDKSPVYEVKAVPVEKVLANDYNPNVVAPPEMKLLELSIWEDGFTMPCVCYYNKEEDNYILVDGYHRYTVLKTSKRIYKRENGLLPIVVIDKDLSNRMSSTIRHNRARGMHNIELMCNIVAELDRAGMSDQWIMKNIGMDRDELLRLKQISGLADLFANREFSIPDEVAPTETERKTL", "soluble on expression in E. coli": "not soluble"}, {"sequence": "MADKRIRSDSSAAAVQAMKNAAVDTIDPPSHAGLEKKAEPFWHDNIRSKALDSWTPADLLAAVELANNQLYITVLRKDLRKEERIRGEERDEGLIKDLRKQIVELQRTILAQRRDLQIHSHATNGESRDQKKRNQNDRDARNTKNEHQDQDDNLIAFPKHG", "soluble on expression in E. coli": "not soluble"}, {"sequence": "MGSDKIHHHHHHMRTSLLYKIKEEERILPSKNLKGNEIIFILAFPDIYKYGLPNLGIQTLYKELYLRDDVAVDRYYTDEDQPFSFEYGFKLKDSDFIGISFQYEGIVLNAFKILKAGSIPLINLLREENDPIIIGGGPVANYNPLPLSLVCDVIVLGEAEEAIHKIIDSYKVYRNVKRKRMKFLQAVSQIEGIYVPCIHGFFQTGMVKQTSPVDINEHPAHSIFVTKNTVYEERVFSIEVRRGCTQRCRFCYMGHRLKPPRTLRWETFKKIVDLAIDQCNVEIIKLFYEGLETRIVEHYLEYIIKKGGRVRIGSQRLEKLSKRIIEIAAISGQRKITVAPETSGRLRKVIGKHEIKDEEILEVVRISSLYGIPDFGLYFILAIPGETFEDLDKIADLIMKVRHQMNKLKNTDGRLEIGINPLYPKPFTPFQYVKLPSLKNIEDRFLYIVEKVKKEGFPVVISNDVVDEKVEKRQKDENENESLVKFETTVFHPISLLQPMISRGGLEIAFLLHYLHSKRFNTVSDLENLLNEFGINAAWYFEEYIDKYCPWKIQKTLISEDYLLKEYFKALNFISTDEECKLNCSQCFNRCIDISTTNYQGGMSNA", "soluble on expression in E. coli": "not soluble"}, {"sequence": "MGSDKIHHHHHHMEEIKFPTNESGLCMNEKGVPWEDLKIVQAIADSGSLAGAGRTLGISHATVFRRLGALESRLGVRLFERHRTGYVPTLAGDDLATTAARVALDIEAVERRLMGRDARLSGTLRVTTTDTLLMGMLSDELAGFQRTYPHIVLEVEVSNRTYDLSRRDADVAIRPTSAPPETLIGRQVGQIAQAVYVSRCHRETSGWVGPDPHLGYPVLERWMARQGVDAQCRYHVDSMLGMLAGVRSGMGRGVLPCYLADMADDLVRASEPLPELQTELWLLTHPDLRNTARVQALFAYLSDSLKARQASLLGTMAAS", "soluble on expression in E. coli": "not soluble"}, {"sequence": "MSNLDNPGIYYQERFFANDGVPDTGRELIAEYRQLITQFRNFIRDFSTGGFGMIYRDQLKRNYFSHEYRLEINLNHLKNFDEDIEMKLRKFPGKVLPALEEAAKIVADEITTPRPKGEEKLHDIQVTLTLDEYPTSLRQVKSAQVSQVVKISGIIVAAAQVRSKATKVTLQCRQCKHTIPDVSIKPGLEGFALPRTCAAPQQGQMQRCPIDPYIMLPDKCECVDYQTLKLQENPEDVPHGEMPRHLQLFTERYLTDKVVPGNRVTIVGVYSIKKLIQKKGGDKSLQGIRTPYLRVLGIHMETSGPGRTNFTTFTPEEERMFKTLAQRKDAYELIAKSIAPSIYGSADIKKSIACLLFGGARKKLPDGITRRGDINVLLLGDPGTAKSQLLKFVEQVSPIGVYTSGKGSSAAGLTASVIRDPQSRSFIMEGGAMVLADGGVVCIDEFDKMREDDRVAIHEAMEQQTISIAKAGITTTLNSRCSVLAAANSVYGRWDESRGDDNIDFMPTILSRFDMIYIVKDTHDVLKDATLAKHVIEVHVNASAAKERDIAGVPKTATTDSDGVMTMFDTDGFLTIEFLKKFVTYARLNCGPRLTPQASEKLVNHYVKMRNPVVNADAFKSGKKAHNSAIPITVRQLEAIVRIAESIAKMELQQFATDKHVEEALRLFRVSTIEAAATGNLAGVEGFTSTADQEALNRIEVQMKKRFAIGTHVSEHLIVQDFVARQHYRESLVKKVIDNLVRRGDLQQKMQRKMLYRVR", "soluble on expression in E. coli": "not soluble"}, {"sequence": "MGKNDQYYAVARGKQVGIYRTWNECKTQIDGFQNARFKKFATEAEARKFVADNMSVPGSKPVTPAVSTSSATRKRTHEGTKFTEAKKMKTEEEVIDPEFANAPVVYTDGACSSNGTKNAKAGWGVYWGDDSEDNEFGPVYGAPTNNRGELIAVQKAIEKAIEKRLPKVVIKTDSNLLVQSMNIWIHGWKRKGWKTSTGSEVLNQDVLMKIDNLRQKLKVKFLHVRGHAGIDGNEKADELARKGAQMFIKRS", "soluble on expression in E. coli": "not soluble"}, {"sequence": "MAHHHHHHMLPSVMDRYESYDFGKELLSLLKTASSTPGAHMGVFTGMGLLLAKYRPEKLLEHVNMHAKKINTHKMIAACEEYHLWLVLRVLHVNNEDWLAAATTMMHHHVDAWDHDVFKTVVSHLGSSDLVYNSISFYIQTNPQLLDDFLTSMFKTLDPERVLLEVKKLAPVHFIRQYLESAQERNSRRVNEAINKLYMEEEDFTALRDSVERFDNFDSAELSAELEKMELFEFRKIALFLHRRNKRFTHAVAVAKENKLYQDAIETAAESANPQIVEDLLDFFVVDHPDCFVACLYTCYDYLTPQVVMEKAWLNKRTDLAMPYFIQVIQDYTTKLSRMEKSMMDAQQLAKEAARRAGPLHTGANDPLMIQAGPANPMGGAMPMPMPMPMPMPMMGGVPPGNYGPPPQFDNRRPY", "soluble on expression in E. coli": "not soluble"}, {"sequence": "MSLTARIGVVTFPGSLDDRDTQRAIKLAGAEPVALWHKDKDLKQVDAVVLPGGFSYGDYLRAGAISRFSPVMETVIEQAKSGMPVLGICNGFQILTEAHLLPGAMLGNNHLHFICRDQKLRVENADTAWTSDYEAGQEIHIPLKNMDGRYVADERTLDMLEAEGRVAFRYVVGGAAADGYGNPNGSLRDIAGITNEAGNVVGLMPHPEHAVEPLIGTGRTDGLPFFTSILKKLVNAEGHHHHHH", "soluble on expression in E. coli": "soluble"}, {"sequence": "MSLHGVPFGTVPPMGTIGLIAAMPDEIRPFLRLASPAARLHGGRFPIWRLRVGNDDIVLVESGMGIDRATAATDALVAAASPVAILSFGFGGAALPGLKVGDLAVGMTSWFAGTEGIVLRRGIDRNLAEKLAEELNRICNGVTRGEIITSARILKKGDLAHSLPNGISSPILDMETAAVAEAAHRRGIPIVALRAISDDAEEELSFSLDEFTDDDMAIRPRKVLATIARKEGHHHHHH", "soluble on expression in E. coli": "soluble"}, {"sequence": "MKTWPAPTAPTPVRATVTVPGSKSQTNRALVLAALAAAQGRGASTISGALRSRDTELMLDALQTLGLRVDGVGSELTVSGRIEPGPGARVDCGLAGTVLRFVPPLAALGSVPVTFDGDQQARGRPIAPLLDALRELGVAVDGTGLPFRVRGNGSLAGGTVAIDASASSQFVSGLLLSAASFTDGLTVQHTGSSLPSAPHIAMTAAMLRQAGVDIDDSTPNRWQVRPGPVAARRWDIEPDLTNAVAFLSAAVVSGGTVRITGWPRVSVQPADHILAILRQLNAVVIHADSSLEVRGPTGYDGFDVDLRAVGELTPSVAALAALASPGSVSRLSGIAHLRGHETDRLAALSTEINRLGGTCRETPDGLVITATPLRPGIWRAYADHRMAMAGAIIGLRVAGVEVDDIAATTKTLPEFPRLWAEMVGPGQGWGYPQPRSGQRARRATGQGSGGKLAAALEHHHHH", "soluble on expression in E. coli": "soluble"}, {"sequence": "MGSDKIHHHHHHMVKKREGDEVQSELMRILAEKQERKENIALVTVISSNSPRGCRAGEMMLVDRFGYIIGDGIGDSLLQENAQREAQICINEGISRRVILPSEEGMTEVFINAFCHRDQLIIVGSGNVALNVYRIASIVGYSITVIDNRAETLSRERFPEAKELLLGDIVELLKAYNIDENTSIVLLSYHHEFDEAALLTVIHSPARYIGIMGNKHKVTAYFSKLNELNIAEELISRVHVPVGIDIGGERAAEIALAVVAEMQAIKYGRAGGFRILQSEITGKVERDELF", "soluble on expression in E. coli": "not soluble"}]}]}
